Patent US20150197559A1 (University of California, published 2015)

T1: BoNT/B1 (Clostridium botulinum, UniProt P10844 2-1291)
T1 sequence: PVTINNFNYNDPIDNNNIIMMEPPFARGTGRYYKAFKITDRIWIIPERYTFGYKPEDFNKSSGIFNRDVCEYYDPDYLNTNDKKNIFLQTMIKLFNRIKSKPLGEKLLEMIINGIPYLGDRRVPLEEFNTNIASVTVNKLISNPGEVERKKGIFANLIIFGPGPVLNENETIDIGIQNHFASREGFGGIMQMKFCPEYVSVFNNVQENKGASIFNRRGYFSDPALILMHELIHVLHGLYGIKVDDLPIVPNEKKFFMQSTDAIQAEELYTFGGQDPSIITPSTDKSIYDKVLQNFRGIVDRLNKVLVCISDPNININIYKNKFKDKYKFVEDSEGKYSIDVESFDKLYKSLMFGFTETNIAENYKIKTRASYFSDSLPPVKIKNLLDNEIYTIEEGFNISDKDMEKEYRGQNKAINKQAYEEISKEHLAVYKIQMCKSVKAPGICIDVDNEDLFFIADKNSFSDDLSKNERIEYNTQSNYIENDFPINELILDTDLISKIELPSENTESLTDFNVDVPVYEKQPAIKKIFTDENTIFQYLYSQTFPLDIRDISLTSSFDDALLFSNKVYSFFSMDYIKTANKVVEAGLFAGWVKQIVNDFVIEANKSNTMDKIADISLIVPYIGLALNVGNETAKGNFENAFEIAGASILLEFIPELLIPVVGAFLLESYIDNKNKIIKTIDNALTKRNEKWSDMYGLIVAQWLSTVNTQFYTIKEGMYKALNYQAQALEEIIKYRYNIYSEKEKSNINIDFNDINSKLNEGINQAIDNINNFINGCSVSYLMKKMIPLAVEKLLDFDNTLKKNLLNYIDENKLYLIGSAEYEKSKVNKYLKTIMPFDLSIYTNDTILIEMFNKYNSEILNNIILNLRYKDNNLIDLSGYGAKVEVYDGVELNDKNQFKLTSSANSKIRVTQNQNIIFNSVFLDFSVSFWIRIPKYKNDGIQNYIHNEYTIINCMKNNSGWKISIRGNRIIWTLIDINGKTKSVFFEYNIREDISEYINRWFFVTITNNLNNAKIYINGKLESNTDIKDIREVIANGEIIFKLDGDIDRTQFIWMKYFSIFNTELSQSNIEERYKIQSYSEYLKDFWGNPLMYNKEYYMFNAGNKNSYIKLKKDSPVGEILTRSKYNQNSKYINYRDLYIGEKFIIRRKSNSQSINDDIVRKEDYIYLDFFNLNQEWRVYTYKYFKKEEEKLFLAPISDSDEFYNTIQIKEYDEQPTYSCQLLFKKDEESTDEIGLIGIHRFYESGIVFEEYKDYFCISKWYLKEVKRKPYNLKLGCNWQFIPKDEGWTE


Experiments:
BoNT/B1 [1] = molecular target: T1, BoNT/B1; test: KinExA flow fluorimetry, IgG in solution
BoNT/B1 [2] = molecular target: T1, BoNT/B1; test: flow cytometry, yeast-displayed affinity matured scFv
BoNT/B1 [3] = molecular target: T1, BoNT/B1; test: yeast-displayed scFv, flow cytometry; reference parental scFv 1B18

Binder | Kd (BoNT/B1 [1]) [nM] | Kd (BoNT/B1 [2]) [nM] | Fold increase in affinity scFv (KD wild type/KD matured) (BoNT/B1 [3]) [fold]
2B18.1 IgG (antibody, V domains shown) VH: QVQLVQSGGGLVQPGGSRRLSCAASGFYFNAYWMTWVRQAPGKGLEWVANINLDGTEIYYLDSVKGRFTVSRDNVKNSVFLQMSSLRVEDTAVYFCARLEWGGRNGWVSPWGQGTLVTVSS VL: DIVMTQSPSSLSASVGDRVSISCRASQSISSYLNWYQQKPGKAPKLLIYKTSSLESGVPSRFSGRGSGTDFTLTISSLQPEDFATYYCQQSYSTPLTFGGGTKVEIKR | 0.0724 | – | –
2B18.1 scFv (scFv) scFv: QVQLVQSGGGLVQPGGSRRLSCAASGFYFNAYWMTWVRQAPGKGLEWVANINLDGTEIYYLDSVKGRFTVSRDNVKNSVFLQMSSLRVEDTAVYFCARLEWGGRNGWVSPWGQGTLVTVSSGGGGSGGGGSGGGGSDIVMTQSPSSLSASVGDRVSISCRASQSISSYLNWYQQKPGKAPKLLIYKTSSLESGVPSRFSGRGSGTDFTLTISSLQPEDFATYYCQQSYSTPLTFGGGTKVEIKR | – | 0.638 | 11.4
